{"source": "patent US20260232827A1", "about": "(Zymeworks, published 2026)", "key": {"[1]": {"target": "T1, human sodium-dependent phosphate transporter 2B (NaPi2b) (human, UniProt O95436 1-690)", "T1 sequence": "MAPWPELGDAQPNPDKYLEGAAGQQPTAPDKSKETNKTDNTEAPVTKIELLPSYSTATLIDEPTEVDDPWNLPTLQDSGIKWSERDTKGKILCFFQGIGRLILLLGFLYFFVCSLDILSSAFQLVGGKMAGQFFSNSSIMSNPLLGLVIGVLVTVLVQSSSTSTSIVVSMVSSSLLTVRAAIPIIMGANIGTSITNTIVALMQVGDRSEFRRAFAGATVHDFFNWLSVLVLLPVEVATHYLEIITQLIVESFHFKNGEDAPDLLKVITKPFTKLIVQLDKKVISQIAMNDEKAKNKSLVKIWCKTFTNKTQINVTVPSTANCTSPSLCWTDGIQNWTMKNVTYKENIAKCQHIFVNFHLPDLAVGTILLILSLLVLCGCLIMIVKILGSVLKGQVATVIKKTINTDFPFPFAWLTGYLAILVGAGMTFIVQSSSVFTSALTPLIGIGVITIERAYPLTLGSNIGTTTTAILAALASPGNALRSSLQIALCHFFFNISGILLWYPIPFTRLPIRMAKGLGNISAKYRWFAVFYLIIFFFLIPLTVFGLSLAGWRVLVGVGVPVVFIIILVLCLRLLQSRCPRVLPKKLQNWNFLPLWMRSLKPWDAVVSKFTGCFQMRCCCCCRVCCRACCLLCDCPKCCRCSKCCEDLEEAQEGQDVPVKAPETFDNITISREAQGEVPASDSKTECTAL", "test": "cell-based or functional assay"}, "[2]": {"target": "T1, human sodium-dependent phosphate …", "test": "flow cytometry on IGROV-1 cells, 24 h at 4 C, anti-human IgG Fc AF647", "protocol": "(§1) Following incubation and washing, fluorescence was detected by flow cytometry on a BD LSRFortessa™ Cell Analyzer (BD Biosciences, Franklin Lake, NJ) with 1,000 minimum events collected per well."}, "[3]": {"target": "T2, mouse NaPi2b (mouse, UniProt Q9DBP0 1-697)", "T2 construct": "Transfected into HEK293-6e cells (clone CL_#13476); also called Ms NaPi2b", "T2 sequence": "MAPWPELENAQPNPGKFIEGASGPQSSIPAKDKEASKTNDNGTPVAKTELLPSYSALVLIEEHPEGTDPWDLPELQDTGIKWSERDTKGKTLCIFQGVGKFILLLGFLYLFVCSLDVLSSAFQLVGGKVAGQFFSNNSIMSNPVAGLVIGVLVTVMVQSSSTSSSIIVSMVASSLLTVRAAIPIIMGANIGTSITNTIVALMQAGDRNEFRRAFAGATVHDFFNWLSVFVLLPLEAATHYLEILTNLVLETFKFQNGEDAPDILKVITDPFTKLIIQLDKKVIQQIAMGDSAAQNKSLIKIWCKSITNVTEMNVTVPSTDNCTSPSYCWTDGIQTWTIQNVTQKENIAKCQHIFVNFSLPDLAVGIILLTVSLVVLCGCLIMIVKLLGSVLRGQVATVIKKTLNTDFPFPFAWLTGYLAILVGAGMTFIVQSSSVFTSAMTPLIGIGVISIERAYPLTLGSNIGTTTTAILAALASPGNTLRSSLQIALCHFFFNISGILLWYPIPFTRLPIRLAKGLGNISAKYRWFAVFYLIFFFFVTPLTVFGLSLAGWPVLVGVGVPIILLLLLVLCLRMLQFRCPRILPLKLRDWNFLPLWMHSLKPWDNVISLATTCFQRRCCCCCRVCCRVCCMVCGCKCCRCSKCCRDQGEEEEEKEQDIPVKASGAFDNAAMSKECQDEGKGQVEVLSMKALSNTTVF", "test": "flow cytometry on HEK293-6e cells transfected with mouse NaPi2b, apparent Kd", "protocol": "(§2) Following transfection, cells were seeded at 50,000 cells/well in conical-bottom 96-well plates and treated with test antibody or antibody-drug conjugate for 24 hours at 4° C. to prevent internalization. […] Following incubation and washing, fluorescence was detected by flow cytometry on a BD LSRFortessa™ Cell Analyzer (BD Biosciences, Franklin Lake, NJ) with 1,000 minimum events collected per well."}, "[4]": {"target": "T3, cynomolgus monkey NaPi2b (cynomolgus monkey, UniProt O95436 1-690 (human entry))", "T3 construct": "Transfected into HEK293-6e cells (clone CL_#13433); also called Cy NaPi2b; Cyno NaPi2b", "T3 chain": "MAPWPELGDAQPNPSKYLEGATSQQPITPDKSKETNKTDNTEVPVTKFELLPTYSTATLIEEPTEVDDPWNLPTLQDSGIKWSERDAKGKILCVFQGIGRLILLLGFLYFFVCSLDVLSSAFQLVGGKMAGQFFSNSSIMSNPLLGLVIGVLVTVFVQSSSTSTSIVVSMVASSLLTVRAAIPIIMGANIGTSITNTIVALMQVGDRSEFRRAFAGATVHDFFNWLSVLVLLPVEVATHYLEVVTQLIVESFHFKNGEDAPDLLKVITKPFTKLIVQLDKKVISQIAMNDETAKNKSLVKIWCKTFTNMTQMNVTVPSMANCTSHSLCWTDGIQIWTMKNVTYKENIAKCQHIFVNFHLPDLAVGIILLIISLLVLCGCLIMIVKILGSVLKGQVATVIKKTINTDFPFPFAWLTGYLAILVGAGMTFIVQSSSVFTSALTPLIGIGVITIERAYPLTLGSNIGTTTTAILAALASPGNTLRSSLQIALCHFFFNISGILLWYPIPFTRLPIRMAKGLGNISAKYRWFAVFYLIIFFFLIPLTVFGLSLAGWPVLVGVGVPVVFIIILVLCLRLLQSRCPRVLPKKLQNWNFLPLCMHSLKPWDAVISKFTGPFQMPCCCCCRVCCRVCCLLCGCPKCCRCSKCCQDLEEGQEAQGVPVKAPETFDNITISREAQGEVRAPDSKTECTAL", "test": "flow cytometry on HEK293-6e cells transfected with cynomolgus NaPi2b", "protocol": "as §2"}, "[5]": {"target": "T1, human sodium-dependent phosphate …", "test": "flow cytometry on HEK293-6e cells transfected with human NaPi2b", "protocol": "as §2"}, "[6]": {"target": "T1, human sodium-dependent phosphate …", "test": "flow cytometry on HEK293-6e cells transfected with human NaPi2b", "remark": "listed apart in the source", "protocol": "as §2"}, "[7]": {"target": "T1, human sodium-dependent phosphate …", "test": "cell-based or functional assay", "remark": "listed apart in the source"}, "[8]": {"target": "T2, mouse NaPi2b", "test": "flow cytometry on HEK293-6e cells transfected with mouse NaPi2b", "protocol": "as §2"}, "[9]": {"target": "T1, human sodium-dependent phosphate …", "test": "flow cytometry on OVCAR-3 cells, 24 h at 4 C, anti-human IgG Fc AF647", "protocol": "as §1"}, "[10]": {"target": "T3, cynomolgus monkey NaPi2b", "test": "flow cytometry on HEK293-6e cells transfected with cynomolgus NaPi2b, apparent Kd", "protocol": "as §2"}, "[11]": {"target": "T1, human sodium-dependent phosphate …", "test": "cell-based or functional assay", "remark": "listed apart in the source"}, "[12]": {"target": "T1, human sodium-dependent phosphate …", "test": "cell-based or functional assay", "remark": "listed apart in the source"}, "[13]": {"target": "T1, human sodium-dependent phosphate …", "test": "cell-based or functional assay", "remark": "listed apart in the source"}}, "note": "Like-named read-outs stand apart in the source and are kept apart here.", "data": [{"binder": "v22277 (palivizumab) (antibody, human IgG1, kappa) heavy 1: GQVTLRESGPALVKPTQTLTLTCTFSGFSLSTSGMSVGWIRQPPGKALEWLADIWWDDKKDYNPSLKSRLTISKDTSKNQVVLKVTNMDPADTATYYCARSMITNWYFDVWGAGTTVTVSSASTKGPSVFPLAPSSKSTSGGTAALGCLVKDYFPEPVTVSWNSGALTSGVHTFPAVLQSSGLYSLSSVVTVPSSSLGTQTYICNVNHKPSNTKVDKKVEPKSCDKTHTCPPCPAPELLGGPSVFLFPPKPKDTLMISRTPEVTCVVVDVSHEDPEVKFNWYVDGVEVHNAKTKPREEQYNSTYRVVSVLTVLHQDWLNGKEYKCKVSNKALPAPIEKTISKAKGQPREPQVYVYPPSRDELTKNQVSLTCLVKGFYPSDIAVEWESNGQPENNYKTTPPVLDSDGSFALVSKLTVDKSRWQQGNVFSCSVMHEALHNHYTQKSLSLSPG heavy 2: not shown light: GDIQMTQSPSTLSASVGDRVTITCKSQLSVGYMHWYQQKPGKAPKLLIYDTSKLASGVPSRFSGSGSGTEFTLTISSLQPDDFATYYCFQGSGYPFTFGGGTKLEIKRTVAAPSVFIFPPSDEQLKSGTASVVCLLNNFYPREAKVQWKVDNALQSGNSQESVTEQDSKDSTYSLSSTLTLSKADYEKHKVYACEVTHQGLSSPVTKSFNRGEC", "values": [{"measurement": "Internalized Fluorescence Fold-Over Palivizumab, IGROV-1, 4 hrs, 10 nM", "setting": "[1]", "value": 1, "unit": "fold"}, {"measurement": "Internalized Fluorescence Fold-Over Palivizumab, OVCAR-3, 4 hrs, 10 nM", "setting": "[1]", "value": 1, "unit": "fold"}, {"measurement": "Internalized Fluorescence Fold-Over Palivizumab, OVCAR-3, 24 hrs, 10 nM", "setting": "[1]", "value": 1, "unit": "fold"}]}, {"binder": "v38591-MC-GGFG-AM-Compound 139 DAR 8 (antibody, human IgG1, kappa, drug-linker MC-GGFG-AM-Compound 139 on cysteine thiols after TCEP reduction, positions not given; DAR 8 for the whole antibody, Antibody-drug conjugate of v38591 (IgG1/kappa); also called v38593) heavy: not shown light: DVQMTQSPSSLSASVGDRVTITCRASQDVYSYLNWYQQKPGKAVKLLIYYTSRLQSGVPSRFSGSGSGTDYTLTISSLQPEDFATYYCQQYNIFPWTFGQGTKLEIKRTVAAPSVFIFPPSDEQLKSGTASVVCLLNNFYPREAKVQWKVDNALQSGNSQESVTEQDSKDSTYSLSSTLTLSKADYEKHKVYACEVTHQGLSSPVTKSFNRGEC", "values": [{"measurement": "Bmax", "setting": "[2]", "value": 20500}, {"measurement": "Kd", "setting": "[2]", "value": 1600, "unit": "pM"}, {"measurement": "Kd", "setting": "[3]", "value": 640, "unit": "pM"}, {"measurement": "Bmax", "setting": "[4]", "value": 408}, {"measurement": "Bmax", "setting": "[5]", "value": 1530}, {"measurement": "Bmax", "setting": "[6]", "value": 1530}, {"measurement": "Internalized Fluorescence in OVCAR-3, 15 min, 100 nM", "setting": "[7]", "value": 7380}, {"measurement": "Internalized Fluorescence in OVCAR-3, 4 hr, 100 nM", "setting": "[7]", "value": 15600}, {"measurement": "Internalized Fluorescence in OVCAR-3, 16 hr, 100 nM", "setting": "[7]", "value": 16800}, {"measurement": "Internalized Fluorescence in OVCAR-3, 24 hr, 100 nM", "setting": "[7]", "value": 26700}, {"measurement": "Bmax", "setting": "[8]", "value": 396}, {"measurement": "Bmax", "setting": "[9]", "value": 14300}, {"measurement": "Kd", "setting": "[9]", "value": 2710, "unit": "pM"}, {"measurement": "Kd", "setting": "[10]", "value": 470, "unit": "pM"}]}, {"binder": "v29456-MC-GGFG-AM-Compound 139 DAR 8 (antibody, human IgG1, kappa, drug-linker MC-GGFG-AM-Compound 139 on cysteine thiols after TCEP reduction, positions not given; DAR 8.0 for the whole antibody) heavy: not shown light: DVQMTQSPSSLSASVGDRVTITCRASQDVYSYLNWYQQKPGKAVKLLIYYTSRLQSGVPSRFSGSGSGTDYTLTISSLQPEDFATYYCQQYNIFPWTFGQGTKLEIKRTVAAPSVFIFPPSDEQLKSGTASVVCLLNNFYPREAKVQWKVDNALQSGNSQESVTEQDSKDSTYSLSSTLTLSKADYEKHKVYACEVTHQGLSSPVTKSFNRGEC", "values": [{"measurement": "EC50, in vitro cytotoxicity, IGROV-1 spheroids", "setting": "[11]", "value": 310, "unit": "pM"}, {"measurement": "EC50, in vitro cytotoxicity, TOV-21G:HDFa (1:1) spheroids", "setting": "[11]", "value": 240, "unit": "pM"}, {"measurement": "EC50, in vitro cytotoxicity, 2D monolayer, IGROV-1", "setting": "[12]", "value": 390, "unit": "pM"}, {"measurement": "EC50, in vitro cytotoxicity, 2D monolayer, TOV-21G", "setting": "[12]", "value": 4300, "unit": "pM"}, {"measurement": "EC50, in vitro cytotoxicity, H441 spheroids", "setting": "[13]", "value": 1570, "unit": "pM"}, {"measurement": "EC50, in vitro cytotoxicity, IGROV-1 spheroids", "setting": "[13]", "value": 550, "unit": "pM"}, {"measurement": "EC50, in vitro cytotoxicity, TOV-21G spheroids", "setting": "[13]", "value": 540, "unit": "pM"}]}, {"binder": "v38591-MC-GGFG-AM-Compound 139 DAR 4 (antibody, human IgG1, kappa, drug-linker MC-GGFG-AM-Compound 139 on cysteine thiols after TCEP reduction, positions not given; DAR 4 for the whole antibody, Antibody-drug conjugate of v38591 (IgG1/kappa)) heavy: not shown light: DVQMTQSPSSLSASVGDRVTITCRASQDVYSYLNWYQQKPGKAVKLLIYYTSRLQSGVPSRFSGSGSGTDYTLTISSLQPEDFATYYCQQYNIFPWTFGQGTKLEIKRTVAAPSVFIFPPSDEQLKSGTASVVCLLNNFYPREAKVQWKVDNALQSGNSQESVTEQDSKDSTYSLSSTLTLSKADYEKHKVYACEVTHQGLSSPVTKSFNRGEC", "values": [{"measurement": "Bmax", "setting": "[2]", "value": 22700}, {"measurement": "Kd", "setting": "[2]", "value": 1700, "unit": "pM"}, {"measurement": "Kd", "setting": "[3]", "value": 1490, "unit": "pM"}, {"measurement": "Bmax", "setting": "[4]", "value": 459}, {"measurement": "Bmax", "setting": "[5]", "value": 1260}, {"measurement": "Bmax", "setting": "[6]", "value": 1260}, {"measurement": "Bmax", "setting": "[8]", "value": 538}, {"measurement": "Bmax", "setting": "[9]", "value": 15500}, {"measurement": "Kd", "setting": "[9]", "value": 2520, "unit": "pM"}, {"measurement": "Kd", "setting": "[10]", "value": 360, "unit": "pM"}]}]}
